Experimental data taken from paper PMC11476584.

B1: Mitochondrial import receptor subunit TOM40 (TOMM40) (natural protein)
chain: MGNVLAASSPPAGPPPPPAPALVGLPPPPPSPPGFTLPPLGGSLGAGTSTSRSSERTPGAATASASGAAEDGACGCLPNPGTFEECHRKCKELFPIQMEGVKLTVNKGLSNHFQVNHTVALSTIGESNYHFGVTYVGTKQLSPTEAFPVLVGDMDNSGSLNAQVIHQLGPGLRSKMAIQTQQSKFVNWQVDGEYRGSDFTAAVTLGNPDVLVGSGILVAHYLQSITPCLALGGELVYHRRPGEEGTVMSLAGKYTLNNWLATVTLGQAGMHATYYHKASDQLQVGVEFEASTRMQDTSVSFGYQLDLPKANLLFKGSVDSNWIVGATLEKKLPPLPLTLALGAFLNHRKNKFQCGFGLTIG
B2: Lon protease (LONP1) (enzyme)
chain: FWEASSRGGGAFSGGEDASEGGAEEGAGGAGGSAGAGEGPVITALTPMTIPDVFPHLPLIAITRNPVFPRFIKIIEVKNKKLVELLRRKVRLAQPYVGVFLKRDDSNESDVVESLDEIYHTGTFAQIHEMQDLGDKLRMIVMGHRRVHISRQLEVEPEEPEAENKHKPRRKSKRGKKEAEDELSARHPAELAMEPTPELPAEVLMVEVENVVHEDFQVTEEVKALTAEIVKTIRDIIALNPLYRESVLQMMQAGQRVVDNPIYLSDMGAALTGAESHELQDVLEETNIPKRLYKALSLLKKEFELSKLQQRLGREVEEKIKQTHRKYLLQEQLKIIKKELGLEKDDKDAIEEKFRERLKELVVPKHVMDVVDEELSKLGLLDNHSSEFNVTRNYLDWLTSIPWGKYSNENLDLARAQAVLEEDHYGMEDVKKRILEFIAVSQLRGSTQGKILCFYGPPGVGKTSIARSIARALNREYFRFSVGGMTDVAEIKGHRRTYVGAMPGKIIQCLKKTKTENPLILIDEVDKIGRGYQGDPSSALLELLDPEQNANFLDHYLDVPVDLSKVLFICTANVTDTIPEPLRDRMEMINVSGYVAQEKLAIAERYLVPQARALCGLDESKAKLSSDVLTLLIKQYCRESGVRNLQKQVEKVLRKSAYKIVSGEAESVEVTPENLQDFVGKPVFTVERMYDVTPPGVVMGLAWTAMGGSTLFVETSLRRPQDKDAKGDKDGSLEVTGQLGEVMKESARIAYTFARAFLMQHAPANDYLVTSHIHLHVPEGATPKDGPSAGCTIVTALLSLAMGRPVRQNLAMTGEVSLTGKILPVGGIKEKTIAAKRAGVTCIVLPAENKKDFYDLAAFITEGLEVHFVEHYREIFDIAFPDEQAEALAVER

Target: Apolipoprotein E4 (APOE4), overexpressed in transfected Huh7 cells (human) (UniProt P02649)
Test: co-IP; APOE precipitated with anti-APOE antibody (sc-13521) and Protein G Sepharose, overnight at 4 °C, from lysates of APOE3- and APOE4-transfected Huh7 cells; Western blot, target bands normalised to the APOE signal

Chain of UniProt P02649 (P02649 19-317): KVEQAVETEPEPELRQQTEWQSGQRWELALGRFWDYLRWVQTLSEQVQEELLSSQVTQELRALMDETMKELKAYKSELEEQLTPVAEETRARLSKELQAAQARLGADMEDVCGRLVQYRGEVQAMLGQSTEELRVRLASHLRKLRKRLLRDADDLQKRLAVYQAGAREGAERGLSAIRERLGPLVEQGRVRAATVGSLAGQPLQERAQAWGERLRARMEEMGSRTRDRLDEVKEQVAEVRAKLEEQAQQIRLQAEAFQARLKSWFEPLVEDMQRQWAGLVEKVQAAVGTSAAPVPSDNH

Molecule	fold change of the target/APOE band against APOE3-transfected cells [fold]
Voltage-dependent anion-selective channel 1 (VDAC1) (from UniProt P21796 1-283) (natural protein)	1.2
B1	1.29
B2	2.11
